Substitutions are numbered along the chain they refer to. One block for each binder: values may come before it.
Tests used:
[1] = target: T1, human FcRH4 (full-length, on SVT2 cells) (human, UniProt Q96PJ5 20-515); assay: FACS, SVT2 cells
T1 construct: whole, on cells; also called SVT2-FcRH4
T1 sequence (looked up): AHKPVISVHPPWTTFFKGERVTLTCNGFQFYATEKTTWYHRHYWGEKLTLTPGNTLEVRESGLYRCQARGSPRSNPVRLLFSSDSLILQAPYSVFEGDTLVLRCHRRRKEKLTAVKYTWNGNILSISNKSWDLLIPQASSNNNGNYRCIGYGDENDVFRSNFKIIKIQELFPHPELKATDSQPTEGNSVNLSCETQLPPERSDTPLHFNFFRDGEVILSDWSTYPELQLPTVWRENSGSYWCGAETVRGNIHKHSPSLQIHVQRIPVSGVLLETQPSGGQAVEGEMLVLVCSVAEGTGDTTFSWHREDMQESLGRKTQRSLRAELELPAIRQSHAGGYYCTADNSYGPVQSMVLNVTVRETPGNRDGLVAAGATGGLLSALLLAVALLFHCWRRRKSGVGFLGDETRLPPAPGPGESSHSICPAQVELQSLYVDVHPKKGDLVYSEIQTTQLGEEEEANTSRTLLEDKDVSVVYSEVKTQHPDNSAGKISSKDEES
Protocol: (§1) Human FcRH5, cyno FcRH5, human FcRH1, FcRH2, FcRH3, and FcRH4 transfected mouse SVT2 cells were used to test binding and cross-reactivity of FcRH5 TDBs. The method was carried out as follows. Cultured SVT2 cells were lifted using non-enzyme cell dissociation buffer (Sigma, #C5914). 1×10⁵ cells were suspended in 100 μL and incubated with FcRH5 TDBs at 3 μg/ml. […] Cells were washed twice with FACS buffer before flow cytometry analysis was carried out on a FACSCalibur.

[2] = target: T2, human FcRH1 (full-length, on SVT2 cells) (human, UniProt Q96LA6 17-429); assay: FACS, SVT2 cells
T2 construct: whole, on cells; also called SVT2-FcRH1
T2 sequence (looked up): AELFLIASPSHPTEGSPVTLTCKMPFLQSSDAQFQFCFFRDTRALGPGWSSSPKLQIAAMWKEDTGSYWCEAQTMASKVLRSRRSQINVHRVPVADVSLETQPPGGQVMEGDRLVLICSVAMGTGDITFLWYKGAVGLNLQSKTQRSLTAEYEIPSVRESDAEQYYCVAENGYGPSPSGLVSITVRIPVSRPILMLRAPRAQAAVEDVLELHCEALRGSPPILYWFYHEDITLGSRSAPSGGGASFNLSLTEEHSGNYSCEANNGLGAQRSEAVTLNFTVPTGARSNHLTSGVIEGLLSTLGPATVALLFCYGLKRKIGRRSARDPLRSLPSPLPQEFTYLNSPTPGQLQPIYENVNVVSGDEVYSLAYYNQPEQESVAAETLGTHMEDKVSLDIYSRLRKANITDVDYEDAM
Protocol: as §1

[3] = target: T3, human FcRH5 protein fragment (soluble) (human, UniProt Q96RD9 16-851); assay: BIACORE, TDB format
T3 construct: whole entry named; also called soluble human FcRH5; Human FcRH5 (BIACORE analyte)
T3 sequence: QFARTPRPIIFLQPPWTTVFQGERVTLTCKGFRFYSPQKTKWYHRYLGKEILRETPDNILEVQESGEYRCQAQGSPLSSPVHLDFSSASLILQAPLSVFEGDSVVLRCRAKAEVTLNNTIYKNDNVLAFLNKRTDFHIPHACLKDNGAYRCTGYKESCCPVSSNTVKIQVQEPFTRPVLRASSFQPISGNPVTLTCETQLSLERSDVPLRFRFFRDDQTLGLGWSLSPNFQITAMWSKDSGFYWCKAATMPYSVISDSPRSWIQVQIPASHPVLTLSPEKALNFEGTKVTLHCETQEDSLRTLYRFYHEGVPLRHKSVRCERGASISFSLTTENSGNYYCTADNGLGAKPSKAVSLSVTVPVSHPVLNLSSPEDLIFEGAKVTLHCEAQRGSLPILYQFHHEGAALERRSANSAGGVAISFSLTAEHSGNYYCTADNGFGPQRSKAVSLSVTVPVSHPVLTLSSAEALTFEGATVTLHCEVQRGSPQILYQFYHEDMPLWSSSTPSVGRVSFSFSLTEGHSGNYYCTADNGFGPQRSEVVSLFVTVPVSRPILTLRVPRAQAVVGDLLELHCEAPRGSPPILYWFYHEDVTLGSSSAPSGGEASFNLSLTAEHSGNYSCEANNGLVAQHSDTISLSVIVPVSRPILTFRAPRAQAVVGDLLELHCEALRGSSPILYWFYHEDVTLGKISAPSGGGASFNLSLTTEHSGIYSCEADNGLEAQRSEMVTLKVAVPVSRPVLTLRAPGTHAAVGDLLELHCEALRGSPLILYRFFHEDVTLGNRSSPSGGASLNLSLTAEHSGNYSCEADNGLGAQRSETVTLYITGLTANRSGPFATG

[4] = target: T4, human FcRH2 (full-length, on SVT2 cells) (human, UniProt Q96LA5 20-508); assay: FACS, SVT2 cells, 3 µg/ml
T4 construct: whole, on cells; also called SVT2-FcRH2
T4 sequence (looked up): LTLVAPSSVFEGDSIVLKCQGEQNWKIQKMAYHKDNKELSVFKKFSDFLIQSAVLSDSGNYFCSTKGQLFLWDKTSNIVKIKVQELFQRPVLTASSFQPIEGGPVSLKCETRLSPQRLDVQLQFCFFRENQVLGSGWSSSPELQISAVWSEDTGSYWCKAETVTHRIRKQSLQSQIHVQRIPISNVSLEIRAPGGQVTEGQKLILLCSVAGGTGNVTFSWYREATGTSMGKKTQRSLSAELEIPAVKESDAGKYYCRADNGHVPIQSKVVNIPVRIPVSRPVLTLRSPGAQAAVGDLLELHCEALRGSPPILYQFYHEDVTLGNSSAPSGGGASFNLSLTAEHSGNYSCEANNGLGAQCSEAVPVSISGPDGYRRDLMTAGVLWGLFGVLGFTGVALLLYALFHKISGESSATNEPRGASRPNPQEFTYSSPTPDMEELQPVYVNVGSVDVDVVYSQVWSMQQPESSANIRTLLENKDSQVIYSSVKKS
Protocol: as §1

B2: hu1G7.v1.13.1/38E4.v1 TDB (bispecific antibody, V domains shown)
VH 1: EVQLVESGPGLVKPSETLSLTCTVSGFSLTRFGVHWVRQPPGKGLEWLGVIWRGGSTDYNAAFMSRLTISKDNSKNQVSLKLSSVTAADTAVYYCSNHYYGSSDYALDNWGQGTLVTVSS
VL 1: DIQMTQSPSSLSASVGDRVTITCKASQDVRNLVVWFQQKPGKAPKLLIYSGYYRYTGVPSRFSGSGSGTDFTLTISSLQPEDFATYYCQQHYQPPYTFGQGTKVEIK
VH 2: EVQLVQSGAEVKKPGASVKVSCKASGFTFTSYYIHWVRQAPGQGLEWIGWIYPENDNTKYNEKFKDRVTITADTSTSTAYLELSSLRSEDTAVYYCARDGYSRYYFDYWGQGTLVTVSS
VL 2: DIVMTQSPDSLAVSLGERATINCKSSQSLLNSRTRKNYLAWYQQKPGQSPKLLIYWTSTRKSGVPDRFSGSGSGTDFTLTISSLQAEDVAVYYCKQSFILRTFGQGTKVEIK
notes: knob-into-hole TDB; also called 1G7.v1.13.1 TDB
- binding result [1]: no binding (tested: 3 µg/ml)
- binding result [2]: no binding (tested: 3 µg/ml)
- Kd [3]: 0.9 nM
- binding result [4]: binds

B3: hu1G7.v1.2/38E4.v1 TDB (bispecific antibody, V domains shown)
VH 1: B2 VH 1
VL 1: B2 VL 1 with Y53N, T56S, H91Q, Y92F
VH 2: B2 VH 2
VL 2: B2 VL 2
notes: knob-into-hole TDB; also called 1G7.v1.2 TDB
- binding result [1]: no binding (tested: 3 µg/ml)
- binding result [2]: no binding (tested: 3 µg/ml)
- Kd [3]: 2.6 nM
- binding result [4]: binds

B4: hu1G7.v1.1/38E4.v1 TDB (bispecific antibody, V domains shown)
VH 1: B2 VH 1
VL 1: B2 VL 1 with Y52S, T56S, H91Q, Q93S
VH 2: B2 VH 2
VL 2: B2 VL 2
notes: knob-into-hole TDB; also called 1G7.v1.1 TDB
- binding result [1]: no binding (tested: 3 µg/ml)
- binding result [2]: no binding (tested: 3 µg/ml)
- Kd [3]: 2.7 nM
- binding result [4]: binds

Results, then the binder that gave them:

- binding result [1]: no binding (tested: 3 µg/ml)
- binding result [2]: no binding (tested: 3 µg/ml)
- Kd [3]: 1.4 nM
- binding result [4]: binds
B1: hu1G7.v1.4/38E4.v1 TDB (bispecific antibody, V domains shown)
VH 1: B2 VH 1
VL 1: B2 VL 1 with Y52S, T56S, Q93S
VH 2: B2 VH 2
VL 2: B2 VL 2
notes: knob-into-hole TDB; also called 1G7.v1.4 TDB; 1G7.v1.4 (TDB format)

- binding result [1]: no binding (tested: 3 µg/ml)
- binding result [2]: no binding (tested: 3 µg/ml)
- Kd [3]: 1.2 nM
- binding result [4]: binds
B5: hu1G7.v1.13/38E4.v1 TDB (bispecific antibody, V domains shown)
VH 1: B2 VH 1 with L48I
VL 1: B2 VL 1
VH 2: B2 VH 2
VL 2: B2 VL 2
notes: knob-into-hole TDB; also called 1G7.v1.13 TDB

- binding result [1]: no binding (tested: 3 µg/ml)
- binding result [2]: no binding (tested: 3 µg/ml)
- Kd [3]: 1.5 nM
- binding result [4]: binds
B6: hu1G7.v1.3/38E4.v1 TDB (bispecific antibody, V domains shown)
VH 1: B2 VH 1
VL 1: B2 VL 1 with L32I, Y52S, T56S, H91Q, Q93S
VH 2: B2 VH 2
VL 2: B2 VL 2
notes: knob-into-hole TDB; also called 1G7.v1.3 TDB
